Assay [1] concerns the target recombinant human TNF (hTNF) (human) (UniProt P01375). Nature of the assay: cell-based or functional assay. Particulars: scale: ratio EC50 ESBA105 / EC50 test, in mass units [ng/ml].
Assay [2] deals with recombinant human VEGF165 (PeproTech EC Ltd.) (human) (UniProt P15692). As to the kind of experiment: SPR BIAcore T100, hVEGF165 amine-coupled on CM4 chip, scFv as analyte.
Assay [3] concerns the target VEGF (as used in the VEGFR competition ELISA). As to the kind of experiment: competition ELISA against hVEGR1, EC50 ratio to reference Luc.

recombinant human TNF (hTNF) (human), sequence (P01375 77-233 limits assumed): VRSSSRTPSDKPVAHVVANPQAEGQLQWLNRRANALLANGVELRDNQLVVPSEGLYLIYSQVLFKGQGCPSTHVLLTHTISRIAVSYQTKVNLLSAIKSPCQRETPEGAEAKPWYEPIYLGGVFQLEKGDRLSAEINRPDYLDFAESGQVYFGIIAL
recombinant human VEGF165 (PeproTech EC Ltd.) (human), sequence (P15692 other isoform, or with tags, fused parts or gaps limits assumed): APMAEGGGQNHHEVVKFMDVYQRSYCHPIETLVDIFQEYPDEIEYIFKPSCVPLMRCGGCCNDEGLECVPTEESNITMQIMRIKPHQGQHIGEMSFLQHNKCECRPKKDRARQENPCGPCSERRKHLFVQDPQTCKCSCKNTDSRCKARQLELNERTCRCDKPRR
VEGF (as used in the VEGFR competition ELISA), sequence (P15692 whole entry): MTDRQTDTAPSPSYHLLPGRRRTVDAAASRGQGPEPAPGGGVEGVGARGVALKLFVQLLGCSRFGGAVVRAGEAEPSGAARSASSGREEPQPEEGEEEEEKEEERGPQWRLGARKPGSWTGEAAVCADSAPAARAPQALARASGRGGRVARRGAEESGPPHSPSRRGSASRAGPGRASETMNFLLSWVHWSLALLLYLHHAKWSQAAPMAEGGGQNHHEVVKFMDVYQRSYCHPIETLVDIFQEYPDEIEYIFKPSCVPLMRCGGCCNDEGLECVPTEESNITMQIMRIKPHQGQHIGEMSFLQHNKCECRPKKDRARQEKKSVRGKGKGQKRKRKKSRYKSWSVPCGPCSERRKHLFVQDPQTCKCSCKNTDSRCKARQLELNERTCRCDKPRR

B1: EP43_max (scFv, from another filing)
scFv: EIVMTQSPSTLSASVGDRVIIKCQASQSISDWLAWYQQKPGKAPKLLIYGASRLASGFPSRFSGSGSGAEFTLTISGLEPADFATYYCQQGWSDSYVDNLFGQGTKLTVLGGGGGSGGGGSGGGGSGGGGSEVQLVESGGGLVQPGGSLRLSCTVSGFSLSSGAMSWVRQAPGKGLEWVGVIISSGATYYASWAKGRFTISKDTSKNTVYLQMNSLRAEDTAVYYCARGGPDDSNSMGTFDPWGQGTLVTVSS
On to B1, for which the L929* [EC50-E105 / EC50-X] in assay [1] stood at 6.4.

B2: EP34_max (scFv, from another filing)
scFv: EIVMTQSPSTLSASLGDRVIITCQSSQSVYGNIWMAWYQQKSGKAPKLLIYQASKLASGVPSRFSGSGSGAEFSLTISSLQPDDFATYYCQGNFNTGDRYAFGQGTKLTVLGGGGGSGGGGSGGGGSGGGGSEVQLVESGGGLVQPGGSLRLSCTASGFTISRSYWICWVRQAPGKGLEWVACIYGDNDITPLYANWAKGRFPVSTDTSKNTVYLQMNSLRAEDTAVYYCARLGYADYAYDLWGQGTLVTVSS
As to B2, the L929* [EC50-E105 / EC50-X] in assay [1] was 10.5.

B3: 509-maxll (scFv, from another filing)
scFv: EIVMTQSPSTLSASVGDRVIITCQASQNIRIWLSWYQQKPGKAPKLLIYKASTLESGVPSRFSGSGSGTEFTLTISSLQPDDFATYYCQNNAHYSTNGGTFGQGTKLTVLGGGGGSGGGGSGGGGSGGGGSEVQLVESGGGLVQPGGSLRLSCTASGFSLSSYYMSWVRQAPGKGLEWVGILDYVGDTDYASWAKGRFTISKDASKNTVYLQMNSLRAEDTAVYYCARTDDSRGWGLNIWGQGTLVTVSS
Consider B3, for which, in assay [2], the dissociation constant (Kd) turned out to be 3.37 nM, the off-rate (koff) turned out to be 0.00282 s⁻¹ and the kon was determined as 838000 M⁻¹ s⁻¹. The Rel. activity hVEGR1 comp. ELISA (EC50Luc[nM]/EC50test[nM]) in assay [3] amounted to 0.09.

B4: EP6_max (scFv, from another filing)
scFv: EIVMTQSPSTLSASVGDRVIITCQASESIYSGLAWYQQKPGKAPKLLIYQASTLASGVPSRFSGSGSGTDFTLAISSLQPDDFATYYCQQGFGTSNVENPFGQGTKLTVLGGGGGSGGGGSGGGGSGGGGSEVQLVESGGGLVQPGGSLRLSCTVSGFSLSRYGVSWVRQAPGKGLEWVGTIGEAGRAYYANWARSRSTISRDTSKNTVYLQMNSLRAEDTAVYYCARGEVFNNGWGAFNIWGQGTLVTVSS
On to B4, for which the L929* [EC50-E105 / EC50-X] in assay [1] worked out at 1.1.

B5: EP35_max (scFv, from another filing)
scFv: EIVMTQSPSTLSASVGDRVIITCQASQSISNLLAWYQQKPGKAPKLLIVAASKLASGVPSRFSGSGSGTEFTLTISSLQPDDFATYYCQQGWSHTNVDNTFGQGTKLTVLGGGGGSGGGGSGGGGSGGGGSEVQLVESGGGSVQPGGSLRLSCTASGFSFSVGYWICWVRQAPGKGLEWVACIDAGTSGGTYYATWAKGRFTISKDTSKNTVYLQMNSLRAEDTATYYCARGVSSNGYYFKLWGQGTTVTVSS
As for B5, in assay [1], the L929* [EC50-E105 / EC50-X] worked out at 5.2.

B6: EP15_max (scFv, from another filing)
scFv: EIVMTQSPSTLSASVGDRVIITCQASENIYTSLAWYQQKPGKAPKLLIYSASTLASGVPSRFSGSGSGTEFTLTISSLQPDDFATYYCQQGFATSNVENPFGQGTKLTVLGGGGGSGGGGSGGGGSGGGGSEVQLVESGGGSVQPGGSLRLSCTVSGFSLSRYGVSWVRQAPGKGLEWVGAIGETGRAYYANWAKSRSTISRDTSKNTVYLQMNSLRAEDTATYYCARGEEFNNGWGAFNIWGQGTTVTVSS
Take B6: the L929* [EC50-E105 / EC50-X] in assay [1] is 0.39.

In general, Kd refers to the equilibrium constant for the complex coming apart. In general, koff refers to the first-order rate constant of dissociation. What is called kon is a measure of how fast the partners come together.

(Values after EP3964526A1.)
